Measurements: the supplement of paper PMC9112550, “Optimization of the antimicrobial peptide Bac7 by deep mutational scanning” (BMC Biology, 2022)

System: Escherichia coli TOP10
Experiment: shrunken log2 fold change of peptide-encoding DNA abundance (4.5 h post-induction vs induction); higher = less antimicrobial activity (less host growth inhibition)
Conditions: time post-induction: 4.5 h; library: site-saturation at positions 5, 18, 19, 20
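Further: peptides expressed intracellularly from a pBAD plasmid library in pooled LB shake-flask culture, induced with 0.3% L-arabinose, DNA abundance read by NGS, three biological replicates, DESeq2 with apeglm shrinkage.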

Sequence	shrunken log2 fold change
RRIRQRPPRLPRPRPRPQAKPRP	0.0346
RRIRQRPPRLPRPRPRPQARPRP	-0.0121
RRIRQRPPRLPRPRPRPQAWPRP	0.0305
RRIRQRPPRLPRPRPRPQCFPRP	-1.14
RRIRQRPPRLPRPRPRPQDLPRP	-0.243
RRIRQRPPRLPRPRPRPQDMPRP	0.0179
RRIRQRPPRLPRPRPRPQDPPRP	-0.239
RRIRQRPPRLPRPRPRPQDQPRP	-0.276
RRIRQRPPRLPRPRPRPQDSPRP	-0.297
RRIRQRPPRLPRPRPRPQFWPRP	0.681
RRIRQRPPRLPRPRPRPQGDPRP	-0.00865
RRIRQRPPRLPRPRPRPQGRPRP	-0.0215
RRIRQRPPRLPRPRPRPQHQPRP	0.26
RRIRQRPPRLPRPRPRPQHRPRP	-0.0379
RRIRQRPPRLPRPRPRPQIKPRP	-0.498
RRIRQRPPRLPRPRPRPQKAPRP	-0.109
RRIRQRPPRLPRPRPRPQLLPRP	-0.00691
RRIRQRPPRLPRPRPRPQLNPRP	-0.367
RRIRQRPPRLPRPRPRPQLVPRP	0.128
RRIRQRPPRLPRPRPRPQMKPRP	-0.264
RRIRQRPPRLPRPRPRPQMSPRP	-0.0844
RRIRQRPPRLPRPRPRPQMWPRP	0.0113
RRIRQRPPRLPRPRPRPQNGPRP	0.111
RRIRQRPPRLPRPRPRPQPIPRP	0.136
RRIRQRPPRLPRPRPRPQQFPRP	0.0507

Sequence	shrunken log2 fold change
RRIRQRPPRLPRPRPRPQSAPRP	-0.08
RRIRQRPPRLPRPRPRPQSIPRP	-0.0322
RRIRQRPPRLPRPRPRPQSVPRP	0.0191
RRIRQRPPRLPRPRPRPQTAPRP	-0.000297
RRIRQRPPRLPRPRPRPQVAPRP	-0.156
RRIRQRPPRLPRPRPRPQVGPRP	0.331
RRIRQRPPRLPRPRPRPQVNPRP	-0.499
RRIRQRPPRLPRPRPRPQWRPRP	0.419
RRIRQRPPRLPRPRPRPQYYPRP	-0.243
RRIRQRPPRLPRPRPRPRALPRP	0.125
RRIRQRPPRLPRPRPRPRAQPRP	-0.0701
RRIRQRPPRLPRPRPRPRATPRP	0.138
RRIRQRPPRLPRPRPRPRCIPRP	-0.188
RRIRQRPPRLPRPRPRPRDAPRP	0.494
RRIRQRPPRLPRPRPRPRDKPRP	0.00325
RRIRQRPPRLPRPRPRPRDVPRP	-0.0705
RRIRQRPPRLPRPRPRPRDYPRP	0.0272
RRIRQRPPRLPRPRPRPRENPRP	0.0469
RRIRQRPPRLPRPRPRPRFSPRP	0.0453
RRIRQRPPRLPRPRPRPRFVPRP	0.165
RRIRQRPPRLPRPRPRPRGWPRP	0.267
RRIRQRPPRLPRPRPRPRIPPRP	0.206
RRIRQRPPRLPRPRPRPRKTPRP	0.00489
RRIRQRPPRLPRPRPRPRLHPRP	0.0368
RRIRQRPPRLPRPRPRPRMKPRP	-0.249

Sequence	shrunken log2 fold change
RRIRQRPPRLPRPRPRPRNHPRP	-0.137
RRIRQRPPRLPRPRPRPRPRPRP	0.414
RRIRQRPPRLPRPRPRPRQHPRP	-0.141
RRIRQRPPRLPRPRPRPRRTPRP	0.655
RRIRQRPPRLPRPRPRPRSNPRP	-0.108
RRIRQRPPRLPRPRPRPRTRPRP	0.225
RRIRQRPPRLPRPRPRPRYQPRP	-0.0107
RRIRQRPPRLPRPRPRPRYWPRP	-0.0336
RRIRQRPPRLPRPRPRPSAKPRP	0.104
RRIRQRPPRLPRPRPRPSCNPRP	-0.683
RRIRQRPPRLPRPRPRPSDIPRP	-0.0397
RRIRQRPPRLPRPRPRPSDNPRP	-0.394
RRIRQRPPRLPRPRPRPSDPPRP	0.114
RRIRQRPPRLPRPRPRPSEQPRP	0.155
RRIRQRPPRLPRPRPRPSFTPRP	-1.12
RRIRQRPPRLPRPRPRPSGFPRP	-0.102
RRIRQRPPRLPRPRPRPSGGPRP	0.0203
RRIRQRPPRLPRPRPRPSGLPRP	-0.0802
RRIRQRPPRLPRPRPRPSKSPRP	-0.332
RRIRQRPPRLPRPRPRPSLGPRP	-0.162
RRIRQRPPRLPRPRPRPSLMPRP	-0.112
RRIRQRPPRLPRPRPRPSLSPRP	-0.227
RRIRQRPPRLPRPRPRPSNLPRP	-0.11
RRIRQRPPRLPRPRPRPSPIPRP	-0.0339
RRIRQRPPRLPRPRPRPSPMPRP	0.0696

Sequence	shrunken log2 fold change
RRIRQRPPRLPRPRPRPSPNPRP	0.16
RRIRQRPPRLPRPRPRPSPPPRP	0.169
RRIRQRPPRLPRPRPRPSQIPRP	-0.0855
RRIRQRPPRLPRPRPRPSRPPRP	0.37
RRIRQRPPRLPRPRPRPSRRPRP	0.0103
RRIRQRPPRLPRPRPRPSSSPRP	-1.39
RRIRQRPPRLPRPRPRPSVKPRP	-0.0362
RRIRQRPPRLPRPRPRPSWAPRP	-0.0374
RRIRQRPPRLPRPRPRPSWKPRP	-0.244
RRIRQRPPRLPRPRPRPSYIPRP	-0.417
RRIRQRPPRLPRPRPRPTCAPRP	0.406
RRIRQRPPRLPRPRPRPTDAPRP	0.0862
RRIRQRPPRLPRPRPRPTDSPRP	-0.0401
RRIRQRPPRLPRPRPRPTDYPRP	-0.116
RRIRQRPPRLPRPRPRPTEWPRP	0.446
RRIRQRPPRLPRPRPRPTFIPRP	-0.0494
RRIRQRPPRLPRPRPRPTGRPRP	0.146
RRIRQRPPRLPRPRPRPTHAPRP	0.437
RRIRQRPPRLPRPRPRPTIIPRP	-0.244
RRIRQRPPRLPRPRPRPTINPRP	-0.362
RRIRQRPPRLPRPRPRPTISPRP	-0.379
RRIRQRPPRLPRPRPRPTKPPRP	0.0859
RRIRQRPPRLPRPRPRPTLDPRP	0.476
RRIRQRPPRLPRPRPRPTLMPRP	0.369
RRIRQRPPRLPRPRPRPTLPPRP	1.69

Sequence	shrunken log2 fold change
RRIRQRPPRLPRPRPRPTLWPRP	0.0794
RRIRQRPPRLPRPRPRPTMIPRP	0.151
RRIRQRPPRLPRPRPRPTMNPRP	-0.298
RRIRQRPPRLPRPRPRPTMWPRP	0.16
RRIRQRPPRLPRPRPRPTNRPRP	0.0327
RRIRQRPPRLPRPRPRPTNYPRP	-0.248
RRIRQRPPRLPRPRPRPTQIPRP	0.223
RRIRQRPPRLPRPRPRPTRDPRP	-0.271
RRIRQRPPRLPRPRPRPTSKPRP	-0.189
RRIRQRPPRLPRPRPRPTTQPRP	0.0143
RRIRQRPPRLPRPRPRPTWPPRP	0.268
RRIRQRPPRLPRPRPRPVDMPRP	-0.108
RRIRQRPPRLPRPRPRPVDSPRP	0.0997
RRIRQRPPRLPRPRPRPVFLPRP	-0.218
RRIRQRPPRLPRPRPRPVFRPRP	-0.0986
RRIRQRPPRLPRPRPRPVGYPRP	0.101
RRIRQRPPRLPRPRPRPVHRPRP	-0.0635
RRIRQRPPRLPRPRPRPVKFPRP	-0.0717
RRIRQRPPRLPRPRPRPVKQPRP	-0.0153
RRIRQRPPRLPRPRPRPVLMPRP	0.111
RRIRQRPPRLPRPRPRPVMDPRP	-0.39
RRIRQRPPRLPRPRPRPVMGPRP	0.0224
RRIRQRPPRLPRPRPRPVMKPRP	-0.212
RRIRQRPPRLPRPRPRPVMWPRP	0.448
RRIRQRPPRLPRPRPRPVNCPRP	-0.0672

Sequence	shrunken log2 fold change
RRIRQRPPRLPRPRPRPVNDPRP	-0.0199
RRIRQRPPRLPRPRPRPVNFPRP	-0.346
RRIRQRPPRLPRPRPRPVPNPRP	0.154
RRIRQRPPRLPRPRPRPVQVPRP	-0.0564
RRIRQRPPRLPRPRPRPVRIPRP	-0.0391
RRIRQRPPRLPRPRPRPVSGPRP	0.179
RRIRQRPPRLPRPRPRPVSMPRP	-0.181
RRIRQRPPRLPRPRPRPVTAPRP	-0.362
RRIRQRPPRLPRPRPRPVTIPRP	-0.0898
RRIRQRPPRLPRPRPRPVTQPRP	-0.378
RRIRQRPPRLPRPRPRPVTYPRP	-0.219
RRIRQRPPRLPRPRPRPVVIPRP	-0.292
RRIRQRPPRLPRPRPRPVVLPRP	-0.227
RRIRQRPPRLPRPRPRPVYRPRP	-0.308
RRIRQRPPRLPRPRPRPWAIPRP	0.0485
RRIRQRPPRLPRPRPRPWATPRP	0.136
RRIRQRPPRLPRPRPRPWCFPRP	-0.263
RRIRQRPPRLPRPRPRPWFMPRP	-1.08
RRIRQRPPRLPRPRPRPWGPPRP	0.0893
RRIRQRPPRLPRPRPRPWGTPRP	-0.239
RRIRQRPPRLPRPRPRPWHAPRP	-0.106
RRIRQRPPRLPRPRPRPWHKPRP	-0.334
RRIRQRPPRLPRPRPRPWHSPRP	-0.00968
RRIRQRPPRLPRPRPRPWKGPRP	0.013
RRIRQRPPRLPRPRPRPWKMPRP	-0.112
